Target: T1, murine HIP polypeptide (mouse hedgehog interacting protein) (mouse, UniProt Q7TN16 16-700)
T1 construct: In the expression cloning screen the protein was expressed in cells from a mouse limb bud cDNA library plasmid; also called Mouse HIP; mouse HIP clone
T1 sequence: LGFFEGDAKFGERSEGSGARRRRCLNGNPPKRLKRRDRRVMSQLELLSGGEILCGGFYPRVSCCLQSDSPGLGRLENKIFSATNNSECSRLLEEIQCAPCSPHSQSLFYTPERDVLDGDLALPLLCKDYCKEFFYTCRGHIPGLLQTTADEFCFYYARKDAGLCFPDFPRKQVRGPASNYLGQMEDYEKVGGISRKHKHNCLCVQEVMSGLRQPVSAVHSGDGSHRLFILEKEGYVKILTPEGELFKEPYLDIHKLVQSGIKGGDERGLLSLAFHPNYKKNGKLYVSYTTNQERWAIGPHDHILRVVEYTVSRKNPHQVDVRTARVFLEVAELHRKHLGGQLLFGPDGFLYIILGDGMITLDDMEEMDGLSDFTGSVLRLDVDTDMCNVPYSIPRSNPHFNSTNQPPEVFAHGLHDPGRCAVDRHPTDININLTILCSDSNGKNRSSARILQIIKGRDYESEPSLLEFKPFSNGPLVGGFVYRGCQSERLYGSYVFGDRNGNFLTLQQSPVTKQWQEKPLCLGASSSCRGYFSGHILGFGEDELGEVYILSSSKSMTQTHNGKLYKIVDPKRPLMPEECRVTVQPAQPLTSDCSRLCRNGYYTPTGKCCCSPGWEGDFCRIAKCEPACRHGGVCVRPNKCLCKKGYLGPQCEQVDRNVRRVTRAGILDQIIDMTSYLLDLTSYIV
Experiment: ligand-receptor binding study

Kd: ~1 nM
B1: Desert hedgehog (Dhh) (ligand)
chain: not shown

Reference: patent US20030143595A1 (Harvard, published 2003)
